Five proteins from US20020081638 can be followed below.

For data set [1], the target named is free histones (mixture of H1, H3, H2B, H2A and H4; Boehringer Mannheim).
Data set [2] has as its target N-terminus of rat macro-H2A peptide.
Data set [3] has as its target N-terminus of human CENP-A peptide.
Data set [4] has as its target wild-type N-terminus of human histone H3 peptide (aa 1-20).
Data set [5] concerns the target mutant H3 (K9L) N-terminal peptide.

Several values for one entry are separate records, joined by “and”; a condition that tells them apart may be missing. Equal values may be shown once.

B1: (myc)3-Nchromo (aa 3-118), C-terminally truncated human SUV39H1 (protein)
chain: ENLKGCSVCCKSSWNQLQDLCRLAKLSCPALGISKRNLYDFEVEYLCDYKKIREQEYYLVKWRGYPDSESTWEPRQNLKCVRILKQFHKDLERELLRRHHRSKTPRHLDPSLANYL
Regarding B1, the “in vitro HMTase assay, fluorography of 14C-methyl label” value (“in vitro HMTase assay, fluorography” for short) in data set [1] is on record as “no signals were detected with extracts from a HeLa cell line that expresses only the N-terminal third of SUV39H1 (aa 3-118)”.

B2: GST-Suv39h1(7-221), murine (protein)
chain: GCSVCCKSSWNQLQDLCRLAKLSCPALGVSKKNLYDFEVEYLCDYKKIREQEYYLVKWRGYPDSENTWEPRQNLKCIRVLKQFHKDLERELVRRHRRSKPPRHLDPNLANYLVQKAKQRRALQRWEQELNAKRSHLGRITVENEVDLDGPPRSFVYINEYRVGEGITLNQVAVGCECQDCLLAPTGGCCPGASLHKFAYNDQGQVRLKAGQPIYE
In the case of B2, the “in vitro HMTase assay, fluorography” value in data set [1] was “a purified GST-product comprising aa 7-221 proved negative, even at higher protein concentrations”.

B3: GST-Suv39h1(82-412), murine (protein)
chain: CIRVLKQFHKDLERELVRRHRRSKPPRHLDPNLANYLVQKAKQRRALQRWEQELNAKRSHLGRITVENEVDLDGPPRSFVYINEYRVGEGITLNQVAVGCECQDCLLAPTGGCCPGASLHKFAYNDQGQVRLKAGQPIYECNSRCCCGYDCPNRVVQKGIRYDLCIFRTNDGRGWGVRTLEKIRKNSFVMEYVGEIITSEEAERRGQIYDRQGATYLFDLDYVEDVYTVDAAYYGNISHFVNHSCDPNLQVYNVFIDNLDERLPRIAFFATRTIWAGEELTFDYNMQVDPVDMESTRMDSNFGLAGLPGSPKKRVRIECKCGTTACRKYLF
For the protein B3, the “in vitro methylation of individual histones, fluorography” value is listed as “no signals are detected with H2A, H2B or H4” with histone H4; “A weak signal is present if H1 was used as the sole substrate” in the data set with histone H1; “H3 is specifically methylated by GST-Suv39h1(82-412)” with histone H3; “no signals are detected with H2A, H2B or H4” in the data set with histone H2B; “no signals are detected with H2A, H2B or H4” in the data set with histone H2A. The “in vitro methylation of peptides, SDS-PAGE and fluorography” value in data set [2] is recorded as “no signals were detected with the CENP-A or macroH2A peptides, or with insulin”; in data set [3], “no signals were detected with the CENP-A or macroH2A peptides, or with insulin”; in data set [4], “These in vitro assays revealed selective methylation of the wild-type H3 peptide”; in the data set with insulin (Sigma), “no signals were detected with the CENP-A or macroH2A peptides, or with insulin”; in data set [5] it was “the mutated H3 (K9L) peptide was not a substrate”. For the same protein, in data set [4], the “3H-incorporation of individual amino acids by microsequencing of the in vitro methylated peptide” value is “The results confirmed selective transfer of methyl-label to lysine 9”. Besides, the “in vitro HMTase assay, fluorography” value in [1] is listed as “A purified GST-product comprising aa 82-412 maintained HMTase activity (although at a reduced level as compared to transfected SUV39H1)”.

B4: (myc)3-SUV39H1 (aa 3-412), triple myc-tagged full-length human SUV39H1 (protein)
chain: ENLKGCSVCCKSSWNQLQDLCRLAKLSCPALGISKRNLYDFEVEYLCDYKKIREQEYYLVKWRGYPDSESTWEPRQNLKCVRILKQFHKDLERELLRRHHRSKTPRHLDPSLANYLVQKAKQRRALRRWEQELNAKRSHLGRITVENEVDLDGPPRAFVYINEYRVGEGITLNQVAVGCECQDCLWAPTGGCCPGASLHKFAYNDQGQVRLRAGLPIYECNSRCRCGYDCPNRVVQKGIRYDLCIFRTDDGRGWGVRTLEKIRKNSFVMEYVGEIITSEEAERRGQIYDRQGATYLFDLDYVEDVYTVDAAYYGNISHFVNHSCDPNLQVYNVFIDNLDERLPRIAFFATRTIRAGEELTFDYNMQVDPVDMESTRMDSNFGLAGLPGSPKKRVRIECKCGTESCRKYLF
Take B4: the “in vitro HMTase assay, fluorography” value with histone H3 was “indicating selective transfer of the methyl-label to H3”.

B5: GST-CLR4(127-490), S. pombe (protein)
chain: KQSTALTTNDTSIILDDSLHTNSKKLGKTRNEVKEESQKRELVSNSIKEATSPKTSSILTKPRNPSKLDSYTHLSFYEKRELFRKKLREIEGPEVTLVNEVDDEPCPSLDFQFISQYRLTQGVIPPDPNFQSGCNCSSLGGCDLNNPSRCECLDDLDEPTHFAYDAQGRVRADTGAVIYECNSFCSCSMECPNRVVQRGRTLPLEIFKTKEKGWGVRSLRFAPAGTFITCYLGEVITSAEAAKRDKNYDDDGITYLFDLDMFDDASEYTVDAQNYGDVSRFFNHSCSPNIAIYSAVRNHGFRTIYDLAFFAIKDIQPLEELTFDYAGAKDFSPVQSQKSQQNRISKLRRQCKCGSANCRGWLFG
On to B5, for which the in vitro HMTase assay with free histones, activity against recombinant SUV39H1 product in [1] is 3 fold and 5 fold.
